For one experiment, the target named is HLA-A*31:01. Description: IEDB peptide-MHC binding, purified MHC/competitive/fluorescence; filed as Kd, often an IC50 or EC50 that approximates it; ≥ and ≤ were set here for values at or beyond the usual limits of such assays.
The target of experiment [1] is HLA-A*03:01. Kind of experiment: IEDB peptide-MHC binding, purified MHC/direct/fluorescence; filed as Kd, often an IC50 or EC50 that approximates it; ≥ and ≤ were set here for values at or beyond the usual limits of such assays.
Experiment [2] addresses HLA-A*11:01. The experiment is described as above.
The next experiment deals with HLA-A*02:01. Kind of experiment: IEDB peptide-MHC binding, purified MHC/competitive/fluorescence; ≥ and ≤ were set here for values at or beyond the usual limits of such assays.
In experiment [3] the target is HLA-A*11:01. Described as above.
Another experiment concerns the target HLA-A*24:02. The description is as above.
The next experiment has as its target HLA-B*53:01. Kind of experiment: IEDB peptide-MHC binding, purified MHC/competitive/radioactivity; filed as Kd, often an IC50 or EC50 that approximates it; ≥ and ≤ were set here for values at or beyond the usual limits of such assays.
A further experiment concerns the target HLA-B*54:01. The description is as above.
Another experiment addresses HLA-B*07:02. Described as above.
The next experiment deals with HLA-B*51:01. Described as above.
For a further experiment, the target named is HLA-B*35:01. The description is as above.
Another experiment deals with HLA-A*68:02. Kind of experiment: IEDB peptide-MHC binding, purified MHC/competitive/fluorescence; filed as Kd, often an IC50 or EC50 that approximates it; ≥ and ≤ were set here for values at or beyond the usual limits of such assays. As to conditions: source organism: Toxoplasma gondii.
Another experiment concerns the target HLA-B*15:01. Kind of experiment: IEDB peptide-MHC binding, purified MHC/competitive/fluorescence; ≥ and ≤ were set here for values at or beyond the usual limits of such assays.
Experiment [4] addresses HLA-A*03:01. Kind of experiment: IEDB peptide-MHC binding, purified MHC/competitive/fluorescence; filed as Kd, often an IC50 or EC50 that approximates it; ≥ and ≤ were set here for values at or beyond the usual limits of such assays.
The mark [5] stands for this setting: source organism: Vibrio vulnificus YJ016.
Setting [6] is: source organism: Vibrio vulnificus.
Where [7] appears, read: source organism: Zaire ebolavirus.
[8] abbreviates: source organism: Sudan ebolavirus.
Where [9] appears, read: source organism: Lymphocytic choriomeningitis virus (strain Armstrong).
Setting [10] is: source organism: SARS coronavirus Tor2.
[11] abbreviates: source organism: Vaccinia virus Copenhagen.
[12] abbreviates: source organism: Salmonella enterica.
[13] abbreviates: source organism: Mammarenavirus juninense.
Where [14] appears, read: source organism: Lassa virus GA391.
[15] abbreviates: source organism: Mammarenavirus lassaense.
The mark [16] stands for this setting: source organism: Mammarenavirus choriomeningitidis.
[17] abbreviates: source organism: Rickettsia massiliae.

As to ASILSRMAY, the dissociation constant (Kd) was at least 20000 nM with HLA-A*31:01 (setting [5]), 974 nM with HLA-A*03:01 [1] (setting [6]) and 7.4 nM in the experiment with HLA-A*11:01 [2] (setting [6]).

As to AVSSGKNIK, the IC50 with HLA-A*02:01 (setting [7]) was at least 164000 nM; with HLA-A*11:01 [3] (setting [7]), 55300 nM.

As for DAASSRITK, the IC50 in the experiment with HLA-A*11:01 [3] (setting [8]) is at least 121000 nM.

For the sequence EAIVNAQPK, the IC50 came to 34900 nM with HLA-A*11:01 [3] (setting [7]) and 28400 nM in the experiment with HLA-A*24:02 (setting [7]).

For GPMMCPFLF, the Kd amounted to 173 nM in the experiment with HLA-B*53:01 (setting [9]); 764 nM with HLA-B*54:01 (setting [9]); 143 nM in the experiment with HLA-B*07:02 (setting [9]); 13500 nM in the experiment with HLA-B*51:01 (setting [9]); 767 nM with HLA-B*35:01 (setting [9]).

Take GPQSNQRSA: the Kd in the experiment with HLA-B*53:01 (setting [10]) was at least 78200 nM; with HLA-B*54:01 (setting [10]), 5920 nM; in the experiment with HLA-B*07:02 (setting [10]), 365 nM; with HLA-B*51:01 (setting [10]), 8090 nM; with HLA-B*35:01 (setting [10]), 9790 nM.

HNFRAPAPV: the Kd with HLA-A*68:02 is at most 0.1 nM.

For the sequence IMLEGETKL, the IC50 with HLA-B*15:01 (setting [11]) came to 42500 nM; with HLA-A*24:02 (setting [11]), 47200 nM.

Sequence ITHPKYRKH showed a Kd with HLA-A*03:01 [4] (setting [5]) of at least 20000 nM.

On to IVYLIDCER, for which the figures for the Kd in the experiment with HLA-A*31:01 (source organism: Salmonella enterica subsp. arizonae), with HLA-A*03:01 [1] (setting [12]) and in the experiment with HLA-A*11:01 [2] (setting [12]) were 88.3 nM, 939 nM and at least 20000 nM, respectively.

For KLNKFISPK, the dissociation constant (Kd) with HLA-A*31:01 (setting [13]) amounted to 26 nM; with HLA-A*03:01 [1] (setting [13]), 222 nM.

Turning to KVHAVLTEH, the Kd with HLA-A*03:01 [4] (source organism: Brucella abortus 2308) amounted to 94.4 nM.

For LINDQLIMK, the Kd with HLA-A*31:01 (setting [14]) was at least 20000 nM; with HLA-A*03:01 [1] (setting [15]), at least 20000 nM; with HLA-A*11:01 [2] (setting [15]), 285 nM.

For LPFHRWHTMV, the dissociation constant (Kd) with HLA-B*53:01 (setting [10]) worked out at 18700 nM; with HLA-B*54:01 (setting [10]), 28.4 nM; with HLA-B*07:02 (setting [10]), 462 nM; in the experiment with HLA-B*51:01 (setting [10]) it was 1150 nM; with HLA-B*35:01 (setting [10]), 7510 nM.

For LPIFSDAAL, the dissociation constant (Kd) is 64.1 nM with HLA-B*53:01 (setting [16]); 1000 nM with HLA-B*54:01 (setting [16]); 22.1 nM with HLA-B*07:02 (setting [16]); at least 64100 nM in the experiment with HLA-B*51:01 (setting [16]); 13.3 nM in the experiment with HLA-B*35:01 (setting [16]).

With MGFGHRIYK, the Kd with HLA-A*31:01 (source organism: Dictyostelium discoideum) was 1.43 nM; with HLA-A*03:01 [1] (setting [17]) it was 3.7 nM; with HLA-A*11:01 [2] (setting [17]) it was 3.2 nM.

Turning to MPSEDGAEDL, the equilibrium dissociation constant (Kd) with HLA-B*53:01 (setting [16]) is 903 nM; in the experiment with HLA-B*54:01 (setting [16]), at least 69900 nM; in the experiment with HLA-B*07:02 (setting [16]) it was 1860 nM; with HLA-B*51:01 (setting [16]) it was at least 69600 nM; with HLA-B*35:01 (setting [16]), 148 nM.

As to MTMPLSCTK, the Kd with HLA-A*31:01 (setting [14]) is 671 nM; in the experiment with HLA-A*03:01 [1] (setting [15]), 622 nM; with HLA-A*11:01 [2] (setting [15]), 2.3 nM.

Take NPLPNQDND: in the experiment with HLA-A*11:01 [3] (setting [8]), the IC50 is at least 163000 nM.

As for NTIAGVAGL, the values for the concentration for half-maximal inhibition (IC50) with HLA-A*02:01 (setting [7]) and with HLA-A*11:01 [3] (setting [7]) were 32000 nM and at least 144000 nM, respectively.

Take QLRGEELSF: the IC50 with HLA-B*15:01 (setting [8]) was 16800 nM; with HLA-A*02:01 (setting [8]), at least 87000 nM.

With QLSNTTGRL, the figures for the IC50 with HLA-B*15:01 (setting [8]), with HLA-A*02:01 (setting [8]) and with HLA-A*24:02 (setting [8]) were 21800 nM, 4660 nM and 30300 nM, respectively.

Usually Kd stands for the free concentration of one partner at which half of the binding sites on the other are occupied at equilibrium, for simple one-to-one binding. What is called IC50 is the concentration needed to halve the response being measured. A low value points to higher potency.

The values above are taken from the Immune Epitope Database (IEDB).
